Results from article PMC4754655 (Scientific Reports, 2016).
Where a chain is given by its changes, count along the chain named.

B1: GEBT403, mature IgG (antibody, V domains shown)
VH: EVQLVQSGAEVKKPGSSVKVSCKASGYTFTDYYMHWVRQAPGQGLEWMGEINPKTGGTNYAQKFQGRVTMTRDTSTSTAYMELSSLRSEDTAIYSCARGGQRLIPLRRFYFYYWGQGVLVTVSS
VL: QSVLTQPPSVSGAPGQKVTISCTGSSSNIGGYDVHWYQQLPGMAPKLLIYDNNERPSGISDRFSGSKSGTSASLAITGLQTEDEADYYCQSYDSSMNAWVFGGGTRLTVL
notes: also called mature GEBT403
B2: GEBT383, mature IgG (antibody, V domains shown)
VH: QVQLQESGPAVVKPSETLSLTCAVSGGSISSSNWWSWIRQSPGKGLEWIGGVYGSSGSTEYNPSLKSRVTISIDTSKNQFSLKLSSVTAADTAVYYCVRHCTWYNNIWNGYYNGFDYWGQGVLVTVSS
VL: QSALTQPPSVSGAPGQRVTISCTGSSSNIGGYYVSWYQQLPGTVPKLLIYENKKRPSGVSDRFSGSKSGTSASLTITGLQPGDEADYYCSAWDNSLSSHVFGSGTKLTVL
notes: also called non-CD4bs-directed mAb
B3: GEBT391, mature IgG (antibody, V domains shown)
VH: QVQLVESGGGLVQPGGSLRLSCAASGFTFSSYGMHWVRQAPGKGLEWVAVIWFDGSEKYYVDSVKDRFTISRDNSKNMLYLQMNNLKLDDTAVYYCARRGCTGSGCYLYYYALDSWGQGVVVTVSS
VL: DIQMTQSPSSLSASVGDTVTITCRASQGISSYLNWFQQKPGKAPKLLIYAATTLQSGVPSRFSGSGSGTDFTLTISSLQPEDFATYYCLQHNFYPYSFGQGTKVEIK
B4: GEBT412, inferred germline (igL) reverted IgG (antibody, V domains shown)
VH: B3 VH with F53Y, E57K, V61A, D89E, A112G
VL: B3 VL with T52S, T53S, Q55E, D70E
notes: also called igL GEBT412
B5: GEBT412, mature IgG (antibody, V domains shown)
VH: B3 VH with S21A, T28I, S31N, Y32H, F53Y, V61A, D89V, A112G
VL: B3 VL with Y32H
B6: GEBT391, inferred germline (igL) reverted IgG (antibody, V domains shown)
VH: B3 VH with Q1E, F53Y, E57K, V61A, D89E
VL: B3 VL with T52S, T53S, Q55E, D70E
notes: also called igL GEBT391; gL-reverted GEBT391
B7: GEBT404, mature IgG (antibody, V domains shown)
VH: EVQLVESGGGLAKPGGSLRLSCAASGFTFSNYWMYWVRQAPGKGLEWISAINSAGSRTYYPDSVKGRFTISRENAKNTLYLQMDSLRAEDTAVYYCAKGRIAIFGLVITYFDYWGQGVLVTVSS
VL: DIQMTQSPSSLSASVGDRVTITCRASQGITNDLAWYQQKPGETPKLLIYDASSLQSGIPSRFSGSGSGTDFTLTISSLQPEDFATYYCQHYYSTPPTFGGGTKVEIK
B8: GEBT404, inferred germline (igL) reverted IgG (antibody, V domains shown)
VH: B7 VH with Y35H, R57S, P61A, S85G
VL: B7 VL with R24Q, D50E, P80S
notes: also called igL GEBT404; gL-reverted GEBT404
B9: GEBT414, mature IgG (antibody, V domains shown)
VH: EVQLVQSGAEVKRPGESLRISCKTSGYSFTGSWISWVRQMPGKGLDWMGNIYPGDSDTRYNPSFQGHVTISADKSISTTYLQWSSLKASDTATYYCAKGGGITIFGLLHYPLDSWGQGVVVTVSS
VL: DIQMTQSPSSLSASVGDTVTITCRASQGINNWLAWYQQKPGKAPKLLIYKASSLQSGVPSRFSGSGSGTDFTLTISSLQSEDFATYYCQQYNSGPLTFGGGTKVEIK

Key:
Details in all cases: both partners purified
JRFL gp140-F trimer = molecular target: T1, JRFL gp140-F trimer (HIV-1 isolate JRFL (clade B), UniProt Q75760, stabilised); assay: ELISA; Env glycoprotein coated at 2 ug/ml in PBS pH 7.4 overnight at 4 C; IgG 5-fold serially diluted, 1 hour at RT; HRP goat anti-human IgG (H+L)
T1 construct: also called JRFL foldon trimers; source: 293 F cells

YU2 gp140-foldon trimer = molecular target: T2, YU2 gp140-foldon trimer (HIV-1 isolate YU2 (clade B), UniProt P35961, stabilised); assay: as above
T2 construct: also called eliciting gp140-F immunogen; gp140 trimers; source: 293 F cells; not shown: His tag, C-terminal, kept

[1] = molecular target: T3, YU2 gp120, soluble monomer (HIV-1 isolate YU2 (clade B), UniProt P35961); assay: as above
[2] = molecular target: T3, YU2 gp120, soluble monomer; assay: BLI

Row | Binder | binding result (JRFL gp140-F trimer) | binding result (YU2 gp140-foldon trimer) | binding result [1] | binding result [2]
1 | B1 | binds | binds | binds | 
2 | B2 |  | binds |  | 
3 | B3 | binds | binds | binds | 
4 | B4 | binds |  |  | binds
5 | B5 | binds | binds | binds | 
6 | B6 | binds | binds |  | binds
7 | B7 | binds | binds | binds | 
8 | B8 | binds |  |  | 
9 | B9 | binds | binds | binds | 
